Like-named read-outs stand apart in the source and are kept apart here.
Tests used:
[1] = biological target: T1, FANCI (human);FANCD2 (human) (human;human, UniProt Q9NVI1;Q9BXW9 1-1328;1-1451, |); test: EMSA
[2] = biological target: T2, FANCI (chicken) (chicken, UniProt B0I564 1-1338); test: EMSA
T2 sequence: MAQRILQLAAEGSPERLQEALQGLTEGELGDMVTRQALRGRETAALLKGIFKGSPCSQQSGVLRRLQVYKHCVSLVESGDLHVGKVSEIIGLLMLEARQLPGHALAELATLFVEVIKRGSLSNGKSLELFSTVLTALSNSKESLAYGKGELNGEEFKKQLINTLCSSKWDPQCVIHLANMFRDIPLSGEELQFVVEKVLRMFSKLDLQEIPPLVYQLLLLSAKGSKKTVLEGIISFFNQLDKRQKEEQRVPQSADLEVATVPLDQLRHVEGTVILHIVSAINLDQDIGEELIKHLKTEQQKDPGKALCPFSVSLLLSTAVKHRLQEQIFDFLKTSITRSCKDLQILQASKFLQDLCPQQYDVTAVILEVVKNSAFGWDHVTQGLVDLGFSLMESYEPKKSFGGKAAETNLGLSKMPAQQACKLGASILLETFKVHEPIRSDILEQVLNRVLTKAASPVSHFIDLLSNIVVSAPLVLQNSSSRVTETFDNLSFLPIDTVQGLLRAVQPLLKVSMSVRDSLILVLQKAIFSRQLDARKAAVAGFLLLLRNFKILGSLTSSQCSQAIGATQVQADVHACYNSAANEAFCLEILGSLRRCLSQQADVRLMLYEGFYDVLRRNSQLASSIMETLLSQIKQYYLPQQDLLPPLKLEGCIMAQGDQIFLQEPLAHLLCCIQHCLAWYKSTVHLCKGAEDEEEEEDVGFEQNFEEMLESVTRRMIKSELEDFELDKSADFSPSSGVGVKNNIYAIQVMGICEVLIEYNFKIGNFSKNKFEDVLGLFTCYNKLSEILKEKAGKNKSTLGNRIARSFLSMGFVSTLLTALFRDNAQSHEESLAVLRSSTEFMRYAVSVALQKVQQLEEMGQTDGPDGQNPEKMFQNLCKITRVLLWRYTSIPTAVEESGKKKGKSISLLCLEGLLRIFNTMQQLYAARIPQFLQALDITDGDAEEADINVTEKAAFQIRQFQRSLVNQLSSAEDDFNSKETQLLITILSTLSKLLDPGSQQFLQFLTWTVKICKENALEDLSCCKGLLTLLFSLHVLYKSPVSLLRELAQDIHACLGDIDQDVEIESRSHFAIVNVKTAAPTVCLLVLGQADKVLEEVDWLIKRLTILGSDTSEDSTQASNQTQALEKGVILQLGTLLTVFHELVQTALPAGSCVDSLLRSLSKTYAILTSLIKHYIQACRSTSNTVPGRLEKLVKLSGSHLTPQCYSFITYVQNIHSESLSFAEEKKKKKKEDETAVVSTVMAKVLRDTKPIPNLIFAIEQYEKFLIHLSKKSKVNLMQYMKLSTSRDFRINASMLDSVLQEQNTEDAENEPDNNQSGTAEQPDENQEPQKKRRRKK

[3] = biological target: FANCI (chicken);FANCD2 (chicken) (chicken;chicken, UniProt B0I564;Q68Y81 1-1338;1-1439, |); test: EMSA
[4] = biological target: FANCI (human) (human, UniProt Q9NVI1 1-1328); test: EMSA
[5] = biological target: FANCD2 (chicken) (chicken, UniProt Q68Y81 1-1439); test: EMSA
[6] = biological target: chicken FANCD2 (His-tagged) (chicken, UniProt Q68Y81 1-1439); test: SEC
[7] = biological target: T1, FANCI (human);FANCD2 (human); test: EMSA; remark: listed apart in the source
[8] = biological target: T1, FANCI (human);FANCD2 (human); test: EMSA; remark: listed apart in the source
[9] = biological target: T1, FANCI (human);FANCD2 (human); test: EMSA; remark: listed apart in the source
[10] = biological target: T1, FANCI (human);FANCD2 (human); test: EMSA; remark: listed apart in the source

Sequence of FANCD2 (chicken) (Q68Y81 whole entry): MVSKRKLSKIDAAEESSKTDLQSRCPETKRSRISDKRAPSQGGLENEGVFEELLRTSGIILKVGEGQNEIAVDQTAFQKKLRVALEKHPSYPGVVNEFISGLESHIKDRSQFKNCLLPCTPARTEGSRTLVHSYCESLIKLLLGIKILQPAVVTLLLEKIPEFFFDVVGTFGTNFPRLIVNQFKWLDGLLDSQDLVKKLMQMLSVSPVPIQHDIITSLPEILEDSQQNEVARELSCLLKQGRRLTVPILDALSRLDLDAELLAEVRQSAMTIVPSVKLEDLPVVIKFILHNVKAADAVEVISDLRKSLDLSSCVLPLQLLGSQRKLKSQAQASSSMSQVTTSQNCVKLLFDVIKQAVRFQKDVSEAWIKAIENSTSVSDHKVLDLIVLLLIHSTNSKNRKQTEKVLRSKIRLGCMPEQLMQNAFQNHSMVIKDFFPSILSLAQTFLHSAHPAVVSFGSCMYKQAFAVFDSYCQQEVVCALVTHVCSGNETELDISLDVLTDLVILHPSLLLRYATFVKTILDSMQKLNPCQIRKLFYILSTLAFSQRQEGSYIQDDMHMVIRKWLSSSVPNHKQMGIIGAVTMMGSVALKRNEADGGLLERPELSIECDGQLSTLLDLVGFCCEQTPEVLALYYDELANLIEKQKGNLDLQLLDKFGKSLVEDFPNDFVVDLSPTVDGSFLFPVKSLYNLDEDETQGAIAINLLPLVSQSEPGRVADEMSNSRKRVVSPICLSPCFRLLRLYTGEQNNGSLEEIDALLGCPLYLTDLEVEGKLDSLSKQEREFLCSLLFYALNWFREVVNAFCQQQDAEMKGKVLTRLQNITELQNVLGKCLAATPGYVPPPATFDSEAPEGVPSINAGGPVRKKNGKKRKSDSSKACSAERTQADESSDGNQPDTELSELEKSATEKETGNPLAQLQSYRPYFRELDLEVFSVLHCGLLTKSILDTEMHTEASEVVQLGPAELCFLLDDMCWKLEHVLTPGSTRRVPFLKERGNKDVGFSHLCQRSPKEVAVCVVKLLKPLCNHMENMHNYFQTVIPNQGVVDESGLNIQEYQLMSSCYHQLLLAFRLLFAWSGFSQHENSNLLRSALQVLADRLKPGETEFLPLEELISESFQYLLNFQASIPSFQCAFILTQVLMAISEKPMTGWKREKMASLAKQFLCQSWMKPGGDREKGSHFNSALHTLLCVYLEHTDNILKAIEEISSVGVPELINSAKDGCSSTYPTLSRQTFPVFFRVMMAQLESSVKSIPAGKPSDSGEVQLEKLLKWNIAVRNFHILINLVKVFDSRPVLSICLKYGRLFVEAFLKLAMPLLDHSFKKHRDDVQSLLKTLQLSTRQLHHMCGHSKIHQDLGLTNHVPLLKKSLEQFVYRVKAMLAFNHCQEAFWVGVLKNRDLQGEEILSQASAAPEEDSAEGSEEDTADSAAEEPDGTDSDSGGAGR
Sequence of FANCI (chicken);FANCD2 (chicken) (Q68Y81 whole entry, one chain of several): as the sequence (Q68Y81 whole entry) above
Sequence of FANCI (human) (Q9NVI1 whole entry): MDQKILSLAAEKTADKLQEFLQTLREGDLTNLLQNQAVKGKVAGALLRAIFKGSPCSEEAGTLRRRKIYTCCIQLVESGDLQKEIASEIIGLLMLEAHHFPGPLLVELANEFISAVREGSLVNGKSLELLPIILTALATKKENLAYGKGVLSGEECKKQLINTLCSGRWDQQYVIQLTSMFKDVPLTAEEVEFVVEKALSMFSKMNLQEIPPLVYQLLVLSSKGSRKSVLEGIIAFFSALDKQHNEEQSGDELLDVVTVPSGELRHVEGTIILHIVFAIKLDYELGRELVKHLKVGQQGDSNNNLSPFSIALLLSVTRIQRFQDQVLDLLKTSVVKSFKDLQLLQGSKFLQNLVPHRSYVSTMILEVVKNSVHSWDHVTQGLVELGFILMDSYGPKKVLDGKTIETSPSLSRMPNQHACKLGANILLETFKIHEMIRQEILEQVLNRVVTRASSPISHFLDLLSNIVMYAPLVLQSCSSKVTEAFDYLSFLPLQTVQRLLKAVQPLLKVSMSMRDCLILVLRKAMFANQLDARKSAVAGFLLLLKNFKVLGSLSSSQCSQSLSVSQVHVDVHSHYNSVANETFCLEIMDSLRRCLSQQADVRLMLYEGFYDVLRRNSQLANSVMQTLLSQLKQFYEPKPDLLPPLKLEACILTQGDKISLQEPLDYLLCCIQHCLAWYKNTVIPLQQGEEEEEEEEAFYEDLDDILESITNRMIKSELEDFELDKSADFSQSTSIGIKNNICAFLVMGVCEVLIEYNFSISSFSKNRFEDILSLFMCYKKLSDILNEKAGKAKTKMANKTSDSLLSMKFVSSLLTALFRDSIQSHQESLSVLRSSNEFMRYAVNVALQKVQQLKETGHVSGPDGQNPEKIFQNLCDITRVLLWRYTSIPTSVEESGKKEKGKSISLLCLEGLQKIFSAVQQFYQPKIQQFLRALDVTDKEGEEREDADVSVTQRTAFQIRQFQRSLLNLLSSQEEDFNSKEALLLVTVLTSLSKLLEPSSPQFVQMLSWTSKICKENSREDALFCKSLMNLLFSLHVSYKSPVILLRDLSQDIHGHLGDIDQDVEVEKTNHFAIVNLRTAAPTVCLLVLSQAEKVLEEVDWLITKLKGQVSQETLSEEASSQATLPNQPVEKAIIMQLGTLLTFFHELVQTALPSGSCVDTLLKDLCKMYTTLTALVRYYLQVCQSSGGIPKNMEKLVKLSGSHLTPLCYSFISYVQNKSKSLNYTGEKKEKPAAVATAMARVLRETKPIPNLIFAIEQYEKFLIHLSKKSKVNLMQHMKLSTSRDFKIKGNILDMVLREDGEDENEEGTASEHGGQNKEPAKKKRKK
T1 sequence (Q9NVI1 whole entry, chain 1 of 2): as the sequence (Q9NVI1 whole entry) above
T1 sequence (Q9BXW9 whole entry, chain 2 of 2): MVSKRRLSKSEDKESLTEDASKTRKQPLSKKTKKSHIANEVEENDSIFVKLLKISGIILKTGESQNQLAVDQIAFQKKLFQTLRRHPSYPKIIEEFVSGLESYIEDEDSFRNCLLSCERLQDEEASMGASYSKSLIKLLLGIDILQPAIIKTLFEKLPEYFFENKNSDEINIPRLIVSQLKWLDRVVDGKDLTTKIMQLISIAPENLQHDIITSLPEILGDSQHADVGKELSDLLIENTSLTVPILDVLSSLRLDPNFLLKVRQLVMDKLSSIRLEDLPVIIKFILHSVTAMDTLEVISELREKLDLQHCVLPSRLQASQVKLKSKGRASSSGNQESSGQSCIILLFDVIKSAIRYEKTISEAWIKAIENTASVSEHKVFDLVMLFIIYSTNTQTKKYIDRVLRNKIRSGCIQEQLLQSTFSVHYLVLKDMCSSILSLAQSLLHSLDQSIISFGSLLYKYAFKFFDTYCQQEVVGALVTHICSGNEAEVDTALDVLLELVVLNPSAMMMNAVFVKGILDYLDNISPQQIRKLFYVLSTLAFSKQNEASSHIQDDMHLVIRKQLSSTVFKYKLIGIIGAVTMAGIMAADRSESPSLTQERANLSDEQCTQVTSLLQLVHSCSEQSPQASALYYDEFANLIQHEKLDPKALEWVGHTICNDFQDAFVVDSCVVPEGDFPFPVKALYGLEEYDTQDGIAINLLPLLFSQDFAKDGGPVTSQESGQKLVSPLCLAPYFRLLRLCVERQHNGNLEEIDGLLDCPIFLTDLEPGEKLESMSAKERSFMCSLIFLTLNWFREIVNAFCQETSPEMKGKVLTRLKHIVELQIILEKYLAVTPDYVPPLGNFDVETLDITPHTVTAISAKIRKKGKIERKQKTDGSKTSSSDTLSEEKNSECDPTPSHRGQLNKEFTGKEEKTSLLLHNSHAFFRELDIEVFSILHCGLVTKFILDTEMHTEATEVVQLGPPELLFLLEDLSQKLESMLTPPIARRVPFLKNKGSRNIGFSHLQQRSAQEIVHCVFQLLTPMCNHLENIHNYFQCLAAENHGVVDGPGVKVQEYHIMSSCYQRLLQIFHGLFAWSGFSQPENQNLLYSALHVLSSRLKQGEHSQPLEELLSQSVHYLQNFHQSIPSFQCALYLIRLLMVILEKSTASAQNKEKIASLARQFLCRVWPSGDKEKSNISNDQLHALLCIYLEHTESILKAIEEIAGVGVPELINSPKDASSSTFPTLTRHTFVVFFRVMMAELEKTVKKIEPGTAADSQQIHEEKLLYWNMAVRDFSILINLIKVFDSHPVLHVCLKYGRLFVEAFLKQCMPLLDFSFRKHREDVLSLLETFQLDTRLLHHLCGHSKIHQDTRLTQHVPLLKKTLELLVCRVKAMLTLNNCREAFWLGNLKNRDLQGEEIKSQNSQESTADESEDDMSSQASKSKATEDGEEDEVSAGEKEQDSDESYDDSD
Sequence of chicken FANCD2 (His-tagged) (Q68Y81 whole entry): as the sequence (Q68Y81 whole entry) above

B1: ssRNA(G48) (ssRNA)
RNA: GGAUGAGAGGGCAUGUGAGUGCGUGGCUGAGAGCGGGAUUGCUGAGUCUGGUGCUGGGAU
Q: Does B1 bind [1]?
A: binds

B2: ssRNA / ssRNA(G28) (ssRNA)
RNA: UGAUAAGAGGUCAUUUGAAUUCAUGGCUUAGAGCUUAAUUGCUGAAUCUGGUGCUGGGAU
Q: Does B2 bind [2]?
A: binds

Q: Does B2 bind [1]?
A: binds

Q: Does B2 bind [3]?
A: binds

Q: Does B2 bind [4]?
A: binds

Q: Does B2 bind [5]?
A: binds

B3: dsRNA / dsRNA(G28) (dsRNA)
RNA 1: B2 RNA
RNA 2: AUCCCAGCACCAGAUUCAGCAAUUAAGCUCUAAGCCAUGAAUUCAAAUGACCUCUUAUCA
Q: Does B3 bind [2]?
A: binds

Q: Does B3 bind [3]?
A: binds

Q: Does B3 bind [4]?
A: binds

Q: Does B3 bind [5]?
A: binds

B4: chicken FANCI (His-tagged) (natural protein, UniProt B0I564 1-1338, looked up)
chain: T2 sequence
Q: Does B4 bind [6]?
A: binds

B5: R-loop(G45) = R-loop(GGC) (mixed)
DNA 1: CATTGCATATTTAAAACATGTTGGAGTGAGTGCGTGGCTGAGATCGGGATTGCTGAGTCTGGTGCTTCAAATGACCTCTTATCAAGTGAC
RNA: CGUGGUCUGAGUCGUUAGGGCUAGAGUCGGUGCGUGAGUG
DNA 2: GTCACTTGATAAGAGGTCATTTGAACACTCACGCACCGACTCTAGCCCTAACGACTCAGACCACGTCCAACATGTTTTAAATATGCAATG
Q: Does B5 bind [7]?
A: binds

B6: R-loop(GAT) (mixed)
DNA 1: B5 DNA 1
RNA: AAAAAAAUAAAAAAAUAAAAAAAAUAAAAAAAUAAAAAAA
DNA 2: GTCACTTGATAAGAGGTCATTTGAATTTTTTTATTTTTTTATTTTTTTTATTTTTTTATTTTTTTTCCAACATGTTTTAAATATGCAATG
Q: Does B6 bind [8]?
A: binds

B7: D-loop(GGC) (structured_DNA)
DNA 1: B5 DNA 1
DNA 2: CGTGGTCTGAGTCGTTAGGGCTAGAGTCGGTGCGTGAGTG
DNA 3: B5 DNA 2
Q: Does B7 bind [9]?
A: binds

B8: R-loop(G30_G-quad) (mixed)
DNA 1: CATTGCATATTTAAAACATGTTGGATTTAATTCAGGGCTTAGGGCTTGGGTACTGGGTCTAATACTTCAAATGACCTCTTATCAAGTGAC
RNA: B5 RNA
DNA 2: B5 DNA 2
Q: Does B8 bind [10]?
A: binds

B9: ssDNA(G48) (ssDNA)
DNA: GGATGAGAGGGCATGTGAGTGCGTGGCTGAGAGCGGGATTGCTGAGTCTGGTGCTGGGAT
Q: Does B9 bind [1]?
A: binds

B10: ssDNA / ssDNA(G28) (ssDNA)
DNA: TGATAAGAGGTCATTTGAATTCATGGCTTAGAGCTTAATTGCTGAATCTGGTGCTGGGAT
Q: Does B10 bind [1]?
A: binds

B11: RNA:DNA hybrid (DNA:RNA)
DNA: B10 DNA
RNA: B3 RNA 2
Q: Does B11 bind [2]?
A: binds

Q: Does B11 bind [3]?
A: binds

Q: Does B11 bind [4]?
A: binds

Q: Does B11 bind [5]?
A: binds

B12: dsDNA / dsDNA(G28) (dsDNA)
DNA 1: B10 DNA
DNA 2: ATCCCAGCACCAGATTCAGCAATTAAGCTCTAAGCCATGAATTCAAATGACCTCTTATCA
Q: Does B12 bind [1]?
A: binds

— article PMC6350941 (Cell reports, 2019)
